Assay results reported in US11564995B2, “Peptide-nanoparticle conjugates” (Wisconsin Alumni Research Foundation, priority 2018, dated 2023).
Entries after “also recorded” stand apart in the source; their conditions may differ. Residues, ends and D or L forms follow the SMILES beside them. No end group written: not given here.

Legend:
786-O cells = assay: Chemosensitivity assay with doxorubicin in cancer cell/Jurkat T cell co-culture; format: cell-based, Human; conditions: 786-O cells co-cultured with Jurkat T cells, then DOX; FIG. 22
Protocol: (§1) Cell culture. Human renal cell carcinoma (RCC) cell line, 786-O, and breast cancer cell line, MCF-7, were utilized as high- and low-PD-L1 expressing cancer cell models, respectively. The human T lymphocyte cell line, Jurkat, was used in this study as a representative PD-1-expressing immune cells. 786-O and Jurkat T cells were cultured in RPMI media, while MCF-7 cells were grown in DMEM media. All cell culture media were supplemented with 1% (v/v) penicillin/streptomycin (P/S) and 10% (v/v) fetal bovine serum (FBS). Cells were incubated under humidified atmosphere containing 5% CO2 at 37° C.
Chemosensitivity Assay. Chemosensitivity assay was performed by measuring the synergistic cytotoxicity effect of immune checkpoint inhibitors, together with chemotherapeutic drug, doxorubicin. Cancer cells were plated in 96-well plates (5,000 cells/well) and incubated for 48 h. Cancer cells and Jurkat T cells were pre-treated with IFNγ and PHA/PMA as aforementioned. Cancer cells were then stained with calcein AM (1.5 μM), followed by 2 h treatment with ICIS. The cells were co-cultured for another 24 h in a 1:4 ratio, prior to doxorubicin (5 μM) treatment. The effect of each ICI on cancer cell survival following doxorubicin treatment (2 h) was analyzed based on changes in fluorescent intensity.

PD-L1 proteins = molecular target: T1, PD-L1 proteins (Homo sapiens, UniProt Q9NZQ7); assay: Surface plasmon resonance (SPR) binding to immobilized PD-L1
T1 construct: purchased R&D systems
T1 sequence (Q9NZQ7 19-290): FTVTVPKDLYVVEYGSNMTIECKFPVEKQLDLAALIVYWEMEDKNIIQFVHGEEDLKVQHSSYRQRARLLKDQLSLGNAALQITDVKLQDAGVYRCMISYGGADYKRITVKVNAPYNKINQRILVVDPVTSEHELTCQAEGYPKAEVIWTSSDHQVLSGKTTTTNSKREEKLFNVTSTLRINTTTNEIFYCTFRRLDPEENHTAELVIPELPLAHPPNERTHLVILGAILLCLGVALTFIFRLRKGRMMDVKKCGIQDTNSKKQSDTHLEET
Protocol: Surface plasma resonance (SPR). SPR analysis was done using a BIAcore™ X (Pharmacia Biosensor AB, Uppsala, Sweden). In short, PD-L1 proteins (R&D systems) were immobilized onto carboxylated dextran-coated gold film surface of sensor chip (CM5 sensor chip, GE Healthcare) through EDC/NHS chemistry. 30 μL of sample solution was injected at a flow rate of […]. Sample solution was allowed to flow into both channels (channel 1 for reference, channel 2 with PD-L1), and the final SPR sensorgrams were obtained by subtracting the […].

[1] = system: 786-O cells (a PD-L1 overexpressing cell line); assay: Fluorescence microscopy of cell interaction, 786-O cells; format: cell-based, Human
Protocol: as §1

[2] = system: MCF-7 cells (with a low level of PD-L1 expression); assay: Fluorescence microscopy of cell interaction, MCF-7 cells; format: cell-based, Human; conditions: treated 1 h
Protocol: as §1

fβH2_mt/PD-L1 complex = fβH2_mt/PD-L1 complex (Homo sapiens, UniProt Q9NZQ7); assay: Fluorescence polarization (FP) competition assay; format: binding; conditions: 10 nM, PD-L1, 2 μM, FIG. 15
Chain of fβH2_mt/PD-L1 complex (Q9NZQ7 19-239 limits assumed, one chain of several): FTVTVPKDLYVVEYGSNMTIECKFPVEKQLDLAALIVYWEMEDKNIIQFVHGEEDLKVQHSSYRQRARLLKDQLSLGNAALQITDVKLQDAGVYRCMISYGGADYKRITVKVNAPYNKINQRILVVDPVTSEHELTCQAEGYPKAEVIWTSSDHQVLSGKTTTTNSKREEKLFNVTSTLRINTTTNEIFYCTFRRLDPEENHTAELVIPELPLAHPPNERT
Protocol: Fluorescence polarization (FP) assay. FP assay in PBS was used the PD-L1 binding and competition assays (λex=480 nm; λem=535 nm). Fluorescence anisotropy measurements were performed at room temperature, in a 384-well plate, and using an Infinite® M1000 Pro microplate reader (Tecan). A fβH2_mt/PD-L1 complex was used for the FP competition assay after 30 min incubation time and titrated with the competitors.

G7-βH2_mt: βH2_mt peptides attached to the surface of generation seven (G7) PAMAM dendrimers, rhodamine labelled; about 30 peptides per dendrimer (HVVWHRESPSGQTDTKAA; also: attached to surface of G7 PAMAM dendrimers, about 30 peptides per dendrimer, rhodamine labelled)
decrease of cell viability compared to cells treated with doxorubicin only (786-O cells): 8.4±3.8% | PD-L1 affinity relative to βH2_mt (PD-L1 proteins; SPR): five orders of magnitude higher | association rate constant (ka) (PD-L1 proteins; SPR): 2.52×10^5 | PD-L1 affinity by SPR sensorgram (comparison in words) (PD-L1 proteins; immobilized PD-L1 proteins, FIG. 4 and 5): higher affinity to immobilized PD-L1 proteins than G7-βH1_mt; also recorded: higher than that of the wildtype βH2-dendrimer conjugate control (G7-βH2_wt) | cell interaction (Rhodamine fluorescence) ([1]; 786-O cells, treated 1 h): strong cell interactions | PD-L1 selectivity (786-O vs MCF-7 cells) ([1]; fluorescence microscopy, 786-O vs MCF-7): high PD-L1 selectivity | cell interaction (Rhodamine fluorescence) [2]: interacted significantly less | displacement of fβH2_mt from PD-L1 / complex integrity (fβH2_mt/PD-L1 complex): dose-dependent displacement of fβH2_mt from PD-L1; also recorded: more effective competitiveness than aPDL1 antibodies

CC(C)[C@H](NC(=O)[C@@H](NC(=O)[C@@H](N)Cc1c[nH]cn1)C(C)C)C(=O)N[C@@H](Cc1c[nH]c2ccccc12)C(=O)N[C@@H](Cc1c[nH]cn1)C(=O)N[C@@H](CCCNC(=N)N)C(=O)N[C@@H](CCC(=O)O)C(=O)N[C@@H](CO)C(=O)N1CCC[C@H]1C(=O)N[C@@H](CO)C(=O)NCC(=O)N[C@@H](CCC(N)=O)C(=O)N[C@H](C(=O)N[C@@H](CC(=O)O)C(=O)N[C@H](C(=O)N[C@@H](CCCCN)C(=O)N[C@@H](C)C(=O)N[C@@H](C)C(N)=O)[C@@H](C)O)[C@@H](C)O [βH2_mt, HVVWHRESPSGQTDTKAA] (H-HVVWHRESPSGQTDTKAA-NH2; N-terminus and C-terminus assumed)
kon (PD-L1 proteins; SPR, read-out: association rate constant (ka)): 1070 M⁻¹ s⁻¹
